Source: paper PMC3514461 (ACS chemical biology, 2012)

Target: the molecule itself
Test: crystal structure

B1: hASRGL1-Thr168Ala (human asparaginase-like protein 1, processing-inactive, precursor-like variant) (enzyme, UniProt Q7L266 1-308, looked up)
chain: MNPIVVVHGGGAGPISKDRKERVHQGMVRAATVGYGILREGGSAVDAVEGAVVALEDDPEFNAGCGSVLNTNGEVEMDASIMDGKDLSAGAVSAVQCIANPIKLARLVMEKTPHCFLTDQGAAQFAAAMGVPEIPGEKLVTERNKKRLEKEKHEKGAQKTDCQKNLGAVGAVALDCKGNVAYATSTGGIVNKMVGRVGDSPCLGAGGYADNDIGAVSTTGHGESILKVNLARLTLFHIEQGKTVEEAADLSLGYMKSRVKGLGGLIVVSKTGDWVAKWTSTSMPWAAAKDGKLHFGIDPDDTTITDLP
binding result: binds
